Reference: patent publication US20210332138A1 (published 2021)
Where two headings read alike, the source gives them in different places.

What was measured:
[1] = biological target: T1, hPDL1 expressed on 293T cells (human, UniProt Q9NZQ7 19-290); assay: FACS
[2] = biological target: T2, hPDL1-Fc fusion protein (human, UniProt Q9NZQ7 19-238); assay: RBA; PD1 coated
[3] = biological target: T2, hPDL1-Fc fusion protein; assay: ELISA
[4] = biological target: T1, hPDL1 expressed on 293T cells; assay: FACS; remark: listed apart in the source
[5] = biological target: T2, hPDL1-Fc fusion protein; assay: ELISA; FIG. 11C
[6] = biological target: T2, hPDL1-Fc fusion protein; assay: BIAcore
[7] = biological target: T2, hPDL1-Fc fusion protein; assay: RBA; PDL1 coated
[8] = biological target: T2, hPDL1-Fc fusion protein; assay: receptor blocking ELISA; hPD1-Fc coated
[9] = biological target: T2, hPDL1-Fc fusion protein; assay: ELISA; FIG. 11B
[10] = biological target: T2, hPDL1-Fc fusion protein; assay: receptor blocking ELISA; hPDL1-Fc coated

T1 sequence (Q9NZQ7 19-290): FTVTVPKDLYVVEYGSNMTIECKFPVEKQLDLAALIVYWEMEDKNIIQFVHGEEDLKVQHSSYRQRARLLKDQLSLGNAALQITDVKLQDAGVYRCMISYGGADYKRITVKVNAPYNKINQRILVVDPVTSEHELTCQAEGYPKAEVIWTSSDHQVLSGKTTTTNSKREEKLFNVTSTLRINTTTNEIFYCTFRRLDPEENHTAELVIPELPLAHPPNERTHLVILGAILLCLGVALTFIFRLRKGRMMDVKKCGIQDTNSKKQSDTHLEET
T2 sequence (Q9NZQ7 19-238): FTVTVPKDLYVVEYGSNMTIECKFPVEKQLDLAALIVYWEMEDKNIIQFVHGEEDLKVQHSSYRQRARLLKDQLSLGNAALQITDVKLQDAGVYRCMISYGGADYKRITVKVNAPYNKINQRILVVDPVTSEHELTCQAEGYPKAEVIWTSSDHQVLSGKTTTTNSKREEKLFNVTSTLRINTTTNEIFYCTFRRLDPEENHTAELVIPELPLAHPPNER

Row | EC50 [1] [nM] | IC50 [2] [nM] | EC50 [3] [nM] | EC50 [4] [nM] | EC50 [5] [nM] | Kd [6] [nM] | IC50 [7] [nM] | IC50 [8] [nM] | EC50 [9] [nM] | IC50 [10] [nM] | Binder
1 | 0.132 | 1.39 | 0.018 | 0.132 | 0.018 | 2.32 | 0.795 | – | – | – | full-length antibody 3-1B11 (antibody, V domains shown) VH: EVQLVESGGGLVQPGGSLRLSCAASGFTFSDYDMIWVRQAPGKGLEWVAVISYDGSNKYYADSVKGRFTISRDNSKNTLYLQMNSLRAEDTAVYYCAKEFFGAFDIWGQGTMVTVSS VL: SSELTQDPAVSVALGQTVTITCQGDSLNYYYANWFQLKPGQAPVLVLFGKNNRPSGIPDRFSGSYSGSTASLTITGAQAEDDADYYCNSRDSGGNPWVFGGGTKLTVL
2 | 0.356 | 1.26 | 0.0391 | – | 0.0247 | 4.46 | 1.53 | 1.53 | 0.0391 | 1.26 | full-length antibody 4-1E8 (antibody, V domains shown) VH: QIQLVQSGAEVKMPGASVTISCEASGYNFISYYIHWVRQAPGQGLEWMGFVVPSGGAAGYTQKFQGRLTVTRDTSTSTVYMDLNSLTSDDTAVYYCVREMSGGWFDFWGQGTLVTVSS VL: DIVMTQSPSSLSASVGDRVTITCRASQGIRNDLGWYQQKPGKAPKLLIYAASTLQSGVPSRFSGSGSGTDFTLTISSLQAEDVAVYYCQQYYSTPLTFGPGTKVDIK
3 | 3.15 | 92.7 | 0.9 | – | – | – | 16.6 | 16.6 | 0.9 | 92.7 | full-length antibody 3-1E4 (antibody, V domains shown) VH: QIQLVQSGAEVKKPGSSVKVSCKASGGTFSSYAISWVRQAPGQGLEWMGGIIPIFGTANYAQKFQGRVTITADKSTSTAYMELSSLRSEDTAVYYCAGGGAVADNSYWGQGTLVTVSS VL: DIRMTQSPSSLSASVGDRVTITCRASQGIRNDLGWYQQKPGKAPKLLIYAASSLQSGVPSRFSGSGSGTDFTLTISSLQPEDFATYYCLQDYNYPRTFGQGTKVEIK
